From paper PMC9618136 (2022)

Target: AVR-Pii effector domain (residues 20 to 70), purified (Magnaporthe oryzae)
Assay: ITC

B1: OsExo70F2, N-terminally truncated, purified (domain or fragment)
chain: ISAAAFDAAEQLIQVWDGTPEALVFEATEDEVAEYLSAVDVAIEHLARGSGGGAGGAGSSSSSTAGRAGVAVQLAMARLEEELRHLMVRHAVPLDPTGLFFSLRRLSLGSMDDLDTSSEFDAATPHSIDVAPETARGGPLVNPFEDQVFDPVRPEAVDDLRAIADRMARAGYSRELADAYCGIRRDLLDEYLSALGVERLSIDEVQRIEWKHLNDKMKKWVQAVKTVVRVLLAGERRLCDQVLSVSDELREECFIESTKGCIMQILSFGDAVAVCPRSPEKLSRILDMYEALAEVIPEMKDLCLGSSGDGVISDVQANLDRLGDAIRGTLFEFGKVLQLESSRRAMTAGEIHPMTRYVMNYLRLLVVYSDTLDALLDDNADDQIDLARAEDQDQEHLESMTPLGKRLLKLISYLEANLEEKSKLYEDSALECIFSMNNLLYIVQKVRDSELGKILGDHWVKRRNGKIRQYSKSYLRISWMKVLSFLKDDGHGSGSGSSSGSGSGHSSSRMSIKEKFKNFNLAFEEIYRNQTTWKVPDPQLREELKISISENVIPAYRAFLGRYGSQVDGGRNSGKYIKYTPEDLESQLSDLFEGAPGPANHSRRRT
- Kd: < 1 nM
